# Assay results taken from article PMC6800134.
# Target: GST-tagged Rb RxL mut (lacks all 5 RxL sequences in its unstructured regions) (human) (UniProt P06400)
# UniProt P06400, sequence (P06400 whole entry): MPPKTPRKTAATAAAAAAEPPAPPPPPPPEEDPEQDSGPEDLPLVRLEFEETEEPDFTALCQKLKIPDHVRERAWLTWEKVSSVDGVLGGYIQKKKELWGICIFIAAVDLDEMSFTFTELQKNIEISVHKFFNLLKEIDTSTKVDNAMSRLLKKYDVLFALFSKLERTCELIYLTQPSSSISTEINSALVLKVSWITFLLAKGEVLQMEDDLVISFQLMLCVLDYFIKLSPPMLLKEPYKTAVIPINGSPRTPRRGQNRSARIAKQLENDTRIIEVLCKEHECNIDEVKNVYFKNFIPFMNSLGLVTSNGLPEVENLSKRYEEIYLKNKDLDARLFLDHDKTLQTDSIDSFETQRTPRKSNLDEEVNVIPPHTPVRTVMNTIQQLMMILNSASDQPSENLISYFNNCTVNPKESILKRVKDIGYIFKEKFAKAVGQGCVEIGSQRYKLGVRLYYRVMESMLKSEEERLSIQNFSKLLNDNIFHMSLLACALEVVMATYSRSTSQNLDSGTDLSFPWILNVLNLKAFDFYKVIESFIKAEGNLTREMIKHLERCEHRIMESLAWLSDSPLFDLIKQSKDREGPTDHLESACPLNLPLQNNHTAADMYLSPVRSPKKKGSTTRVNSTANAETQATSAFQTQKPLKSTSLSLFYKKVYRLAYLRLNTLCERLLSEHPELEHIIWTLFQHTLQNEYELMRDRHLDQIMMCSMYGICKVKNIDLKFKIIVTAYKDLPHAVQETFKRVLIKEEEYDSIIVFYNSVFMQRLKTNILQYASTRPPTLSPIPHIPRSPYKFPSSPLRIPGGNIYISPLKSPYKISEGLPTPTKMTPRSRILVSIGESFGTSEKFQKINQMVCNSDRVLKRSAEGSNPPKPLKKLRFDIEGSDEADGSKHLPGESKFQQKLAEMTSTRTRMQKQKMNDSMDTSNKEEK
row,in vitro kinase assay: fold less phosphorylation than wild type Rb,Substance
1,2 fold,3X FLAG-tagged cyclin E1-Cdk2 fusion complex (enzyme)
2,2.9 fold,3X FLAG-tagged cyclin A-Cdk2 fusion complex (enzyme)
